# Assay results published in patent US20170210813A1 (Regeneron, published 2017).
# T1: Macaca fascicularis PDGFRb.mmh (Macaca fascicularis)
# T1 construct: Soluble monomeric construct; also called mfPDGFRb.mmh
# T1 chain: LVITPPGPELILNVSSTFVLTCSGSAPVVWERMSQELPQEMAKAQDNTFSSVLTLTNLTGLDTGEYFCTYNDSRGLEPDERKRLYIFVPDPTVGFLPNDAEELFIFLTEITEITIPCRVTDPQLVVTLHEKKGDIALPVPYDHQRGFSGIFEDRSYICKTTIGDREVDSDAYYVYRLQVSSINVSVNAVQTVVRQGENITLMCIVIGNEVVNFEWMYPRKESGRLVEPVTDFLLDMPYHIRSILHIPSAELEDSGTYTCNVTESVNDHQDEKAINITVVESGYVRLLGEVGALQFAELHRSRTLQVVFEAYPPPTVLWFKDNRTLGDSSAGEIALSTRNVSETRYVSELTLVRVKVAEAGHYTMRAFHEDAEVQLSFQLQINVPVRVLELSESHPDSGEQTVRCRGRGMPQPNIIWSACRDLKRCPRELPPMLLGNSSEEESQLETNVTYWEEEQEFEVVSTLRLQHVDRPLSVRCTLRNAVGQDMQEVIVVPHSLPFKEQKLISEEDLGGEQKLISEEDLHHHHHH
# B1: H4H3305N (antibody, human IgG4, V domains shown)
# VH: QLQLQESGPGLVKPSETLSLTCIVSGGSISSSSYYWGWIRQPPGKGLEWIGSLYYSGITFYNPSLKSRVTISVDTSKNQFSLTLTSVTAADTAVFYCARHRVMASSPFDHWGQGTLVTVSS
# VL: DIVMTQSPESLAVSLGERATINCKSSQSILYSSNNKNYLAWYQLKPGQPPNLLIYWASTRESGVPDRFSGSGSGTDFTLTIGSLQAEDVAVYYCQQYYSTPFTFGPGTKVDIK
# notes: human IgG4 Fc (H4H prefix)
# Key:
# hPDGFRb.mmh [1] = biological target: T2, hPDGFRb.mmh (human, UniProt P09619 33-531); assay: blocking ELISA, biot-hPDGFRb.mmh to coated PDGF-BB
# T2 construct: Soluble monomeric construct; also called soluble human PDGFR-beta.mmh
# hPDGFRb.mmh [2] = biological target: T2, hPDGFRb.mmh; assay: Octet BLI cross-competition, 25 C; hPDGFRb.mmh on anti-Penta-His tips pre-saturated with mAb-1 H4H3310N (row 9)
# Method in brief: (§1)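 Tips carrying receptor: mAb-1 50 μg/mL, 5 min saturation; then mAb-2 saturation; real-time mAb-2 response recorded. HBST buffer, 1000 rpm.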
# hPDGFRb.mmh [3] = biological target: T2, hPDGFRb.mmh; assay: Octet BLI cross-competition, 25 C; hPDGFRb.mmh on anti-Penta-His tips pre-saturated with mAb-1 H4H3094P (row 5)
# Method in brief: as §1
# [4] = biological target: T3, full length human PDGFR-beta on HEK293 cells (human, UniProt P09619 33-1106); assay: cell-based or functional assay
# human PDGFRb.hFc [5] = biological target: T4, human PDGFRb.hFc (human); assay: SPR, mAb captured, 37 C
# T4 construct: Soluble dimeric construct with human Fc; also called hPDGFRb.hFc
# Method: (§2) Antibodies, expressed as either mouse Fc (prefix H1M; H2M) or human Fc (prefix H4H), were captured on their respective anti-Fc sensor surfaces (Mab capture format). […] Kinetic association (kₐ) and dissociation (kd) rate constants were determined by processing and fitting the data to a 1:1 binding model using Scrubber 2.0 curve fitting software.
# hPDGFRb.mmh [6] = biological target: T2, hPDGFRb.mmh; assay: SPR, mAb captured, 37 C
# Method: as §2
# [7] = biological target: T1, Macaca fascicularis PDGFRb.mmh; assay: SPR, mAb captured, 37 C
# Method: as §2
# human PDGFRb.hFc [8] = biological target: T4, human PDGFRb.hFc; assay: SPR, mAb captured, 25 C
# Method: as §2
# hPDGFRb.mmh [9] = biological target: T2, hPDGFRb.mmh; assay: SPR, mAb captured, 25 C
# Method: as §2
# [10] = biological target: T1, Macaca fascicularis PDGFRb.mmh; assay: SPR, mAb captured, 25 C
# Method: as §2
# hPDGFRb.mmh [11] = biological target: T2, hPDGFRb.mmh; assay: Octet BLI cross-competition, 25 C; hPDGFRb.mmh on anti-Penta-His tips pre-saturated with mAb-1 Control I (row 1)
# Method in brief: as §1
# hPDGFRb.mmh [12] = biological target: T2, hPDGFRb.mmh; assay: Octet BLI cross-competition, 25 C; hPDGFRb.mmh on anti-Penta-His tips pre-saturated with mAb-1 H4H3107S (row 7)
# Method in brief: as §1
# hPDGFRb.mmh [13] = biological target: T2, hPDGFRb.mmh; assay: Octet BLI cross-competition, 25 C; hPDGFRb.mmh on anti-Penta-His tips pre-saturated with mAb-1 H4H3374N (row 3)
# Method in brief: as §1
# [14] = biological target: T3, full length human PDGFR-beta on HEK293 …; assay: cell-based or functional assay; remark: listed apart in the source
# hPDGFRb.mmh [15] = biological target: T2, hPDGFRb.mmh; assay: Octet BLI cross-competition, 25 C; hPDGFRb.mmh on anti-Penta-His tips pre-saturated with mAb-1 H4H3103S (row 4)
# Method: A cross-competition assay was conducted to assess the ability of select antibodies to compete with one another for binding to human PDGFR-beta. […] Each PDGFR-beta.mmh-coated sensor tip was saturated for 5 min with a first anti-PDGFR-beta antibody (Mab #1; 50 μg/mL). Next, each sensor tip was saturated with a solution of a second anti-PDGFR-beta antibody (Mab #2). The real time response of Mab #2 binding to PDGR-beta.mmh pre-complexed with Mab #1 was then monitored. All assays were performed at 25° C. with a flow rate of 1000 rpm on an Octet RED384 biosensor in Octet HBST buffer according to manufacturer's instructions (ForteBio Corp., Menlo Park, Calif.). Results are illustrated in FIG. 2.
binder,measurement,setting,value
B1,% Maximum Blocking,hPDGFRb.mmh [1],86%
same,IC50,hPDGFRb.mmh [1],0.3 nM
same,Response of mAb-2 Binding to hPDGFRβ.mmh Pre-Complexed with mAb-1 (nm),hPDGFRb.mmh [2],0.01 nm
same,Response of mAb-2 Binding to hPDGFRβ.mmh Pre-Complexed with mAb-1 (nm),hPDGFRb.mmh [3],0.27 nm
same,"IC50, blocking PDGF-BB (250 pM) activation, SRE-luciferase",[4],5e-10 M
same,"IC50, blocking PDGF-DD (400 pM) activation, SRE-luciferase",[4],4.8e-10 M
same,Kd,human PDGFRb.hFc [5],0.197 nM
same,koff,human PDGFRb.hFc [5],4.85e-05 s⁻¹
same,kon,human PDGFRb.hFc [5],247000 M⁻¹ s⁻¹
same,t1/2,human PDGFRb.hFc [5],3.97 h
same,Kd,hPDGFRb.mmh [6],1.93 nM
same,koff,hPDGFRb.mmh [6],0.000355 s⁻¹
same,kon,hPDGFRb.mmh [6],184000 M⁻¹ s⁻¹
same,t1/2,hPDGFRb.mmh [6],0.55 h
same,Kd,[7],2.04 nM
same,koff,[7],0.00039 s⁻¹
same,kon,[7],191000 M⁻¹ s⁻¹
same,t1/2,[7],0.5 h
same,Kd,human PDGFRb.hFc [8],0.248 nM
same,koff,human PDGFRb.hFc [8],3.42e-05 s⁻¹
same,kon,human PDGFRb.hFc [8],138000 M⁻¹ s⁻¹
same,t1/2,human PDGFRb.hFc [8],5.63 h
same,Kd,hPDGFRb.mmh [9],1.81 nM
same,koff,hPDGFRb.mmh [9],0.000109 s⁻¹
same,kon,hPDGFRb.mmh [9],59900 M⁻¹ s⁻¹
same,t1/2,hPDGFRb.mmh [9],1.77 h
same,Kd,[10],1.82 nM
same,koff,[10],0.000111 s⁻¹
same,kon,[10],61200 M⁻¹ s⁻¹
same,t1/2,[10],1.73 h
same,Response of mAb-2 Binding to hPDGFRβ.mmh Pre-Complexed with mAb-1 (nm),hPDGFRb.mmh [11],0.22 nm
same,Response of mAb-2 Binding to hPDGFRβ.mmh Pre-Complexed with mAb-1 (nm),hPDGFRb.mmh [12],0 nm
same,Response of mAb-2 Binding to hPDGFRβ.mmh Pre-Complexed with mAb-1 (nm),hPDGFRb.mmh [13],0.24 nm
same,Percent Internalization (Relative to Control I),[14],79%
same,Response of mAb-2 Binding to hPDGFRβ.mmh Pre-Complexed with mAb-1 (nm),hPDGFRb.mmh [15],0.25 nm
